Experimental findings from paper PMC12724367 (Applied and Environmental Microbiology, 2025) are described below.

Data set [1] addresses T1, PdG-D-LDH (Nocardiopsis eucommiae, UniProt A0A975LBX7).
T1 construct: gene KGD82_12890; N-terminal His6 tag (pET15b), codon-optimised synthetic gene, E. coli Tuner; no tag cleavage told; homodimer (97 kDa) fraction
The experiment in a line: X-ray crystal structure; HPLC of released flavin. It is filed as binding. Particulars: non-covalent, active site; co-purified.

Data set [2] addresses T1, PdG-D-LDH. The experiment in a line: product inhibition, DCIP reduction assay. The data set is classed as biochemical.
Data set [3] deals with T1, PdG-D-LDH. The experiment in a line: X-ray crystal structure of complex (soak). The data set is classed as binding. As to conditions: 20 mM D-lactate soaked 10 min; active site, coordinated to Fe(II).
Substrate in data set [4]: O=C1C=C(S(=O)(=O)O)c2ccccc2C1=O
Briefly: apparent steady-state kinetics, absorbance. The data set is classed as biochemical, Nocardiopsis eucommiae. Particulars: electron acceptor, 20 mM sodium D-lactate, 100 mM phosphate, pH 7.5, 25 °C. The text has this:
apparent steady-state kinetics, absorbance on PdG-D-LDH

Substrate in data set [5]: O=C1C=CC(=O)C=C1
Briefly: purified protein. It is filed as biochemical, Nocardiopsis eucommiae. Particulars: electron acceptor, 20 mM sodium D-lactate, 100 mM phosphate, pH 7.5, 25 °C.

Substrate in data set [6]: C[C@@H](O)C(=O)O
Briefly: purified protein. As to conditions: 0.075 mM DCIP as electron acceptor, 100 mM glycine-NaOH, pH 9, 25 °C.

Substrate in data set [7]: C[C@H](O)C(=O)O
The experiment in a line: purified protein. Particulars: 0.075 mM DCIP as electron acceptor, 100 mM glycine-NaOH, pH 9, 25 °C.

Take `Cc1cc2nc3c(=O)[nH]c(=O)nc-3n(C[C@H](O)[C@H](O)[C@H](O)COP(=O)(O)OP(=O)(O)OC[C@H]3O[C@@H](n4cnc5c(N)ncnc54)[C@H](O)[C@@H]3O)c2cc1C` [FAD]: in data set [1], the “X-ray crystal structure; HPLC of released flavin” value is recorded as “The structure contains a non-covalently bound FAD at the active site”.

One may read the IC50 as the point on the concentration scale where inhibition reaches its midpoint. A higher IC50 goes with a need for much substance. With `CC(=O)C(=O)O` [pyruvate], the IC50 in data set [2] came out at 53 mM.

With `C[C@@H](O)C(=O)O` [D-lactate], the “X-ray crystal structure of complex (soak)” value in data set [3] was “a metal ion and the substrate D-lactate (in PdG-D-LDH-lactate complex) are clearly defined”.

B1: PdG-D-LDH (Nocardiopsis eucommiae) (protein)
chain: MPGVVEELVAAIGTEQVVTDPAVMEGYSHDEAEWAPYGAPAAVVRPRDTADVAAVVRVCARSGVAVVGRGAGTGLSGAANSGRGWVVVSFERMNRVLEVDTVQQTATVQPGVVNDDLRARVAQDGLWYPPDPASAPWSTIGGNVATNAGGLCCVKYGVTRDYVLGMEAVVGTGEVVRLGRTTAKGVTGYDLAGLMVGSEGTLGLVTEVTLRLVPLRRGVEHTVVGYFDSLTDAGRAVAAVSAAGIVPSALELIDRFCLQAVDEWKNMGLSAEGEVLLLARSDLPGASGQEEADRILECFEQEKAVYAVRSTDKEEAEALFQARRLAYPALERLGPLLTEDVCVPKARVPHMLEAIEAAGERFDTRIGNIAHAGDGNLHPLFIVPAGDEEAKRRAKQAFEVIVDEALAVGGTVTGEHGVGLLKMRGAADELGPHVLAMHRAVKGALDPEGIFNPGKVFALEEA
notes: N-terminal His6 tag (pET15b), codon-optimised synthetic gene, E. coli Tuner; no tag cleavage told; homodimer (97 kDa) fraction
For orientation: Km means the substrate concentration at which the rate is half of its maximum. One may read the kcat as the maximal rate divided by the concentration of active sites. The kcat/Km is the turnover number divided by the Michaelis constant. For the molecule B1, the Km stood at 80 ± 10 µM in data set [4], 20 ± 10 µM in data set [5], 1000 ± 100 µM in data set [6] and 59000 ± 5000 µM in data set [7]. The catalytic constant (kcat) in data set [4] stood at 0.95 ± 0.04 s⁻¹; in data set [5], 1.8 ± 0.1 s⁻¹; in data set [6], 8.2 s⁻¹; in data set [7], 4.7 s⁻¹. The kcat/Km is 12000 ± 2000 M⁻¹ s⁻¹ in data set [4], 80000 ± 30000 M⁻¹ s⁻¹ in data set [5], 8000 M⁻¹ s⁻¹ in data set [6] and 79 M⁻¹ s⁻¹ in data set [7].
